Experimental findings from patent US20150004190A1 are described below.

In test [1] the target is Peptide ELDKWA (HIV-1). In words: ELISA on coated peptide (FIG. 1). Background: An ELISA detects its analyte on a solid surface through an enzyme-linked reagent.
Test [2] has as its target Peptide ELDKWA (HIV-1). In words: ELISA on coated peptide.
The target in test [3] is Peptide ELDKWA (HIV-1). In words: competitive ELISA, competitor 0.027 nM 2F5 IgA2 detected with anti-human IgA.

B1: 2F5 IgA2 (antibody, V domains shown)
VH: RITLKESGPPLVKPTQTLTLTCSFSGFSLSDFGVGVGWIRQPPGKALEWLAIIYSDDDKRYSPSLNTRLTITKDTSKNQVVLVMTRVSPVDTATYFCAHRRGPTTLFGVPIARGPVNAMDVWGQGITVTI
VL: ALQLTQSPSSLSASVGDRITITCRASQGVTSALAWYRQKPGSPPQLLIYDASSLESGVPSRFSGSGSGTEFTLTISTLRPEDFATYYCQQLHFYPHTFGGGTRVDVR
As for B1, in test [1], the antibody concentration of equivalent binding activity was found to be 0.05 nM. Besides, the fold higher efficacy as compared to IgG1 in test [2] is > 100 fold.

B2: 2F5 IgG1 (antibody, V domains shown)
VH: RITLKESGPPLVKPTQTLTLTCSFSGFSLSDFGVGVGWIRQPPGKALEWLAIIYSDDDKRYSPSLNTRLTITKDTSKNQVVLVMTRVSPVDTATYFCAHRRGPTTLFGVPIARGPVNAMDVWGQGITVTI
VL: ALQLTQSPSSLSASVGDRITITCRASQGVTSALAWYRQKPGSPPQLLIYDASSLESGVPSRFSGSGSGTEFTLTISTLRPEDFATYYCQQLHFYPHTFGGGTRVDVR
With B2, the antibody concentration of equivalent binding activity in test [1] is 6.25 nM. Also, in test [3], the concentration needed to compete was found to be 25 nM.
